# According to the DeepSol protein solubility set:
# Assay: soluble on expression in E. coli; label from the status in PepcDB or PDB records
row,Sequence,soluble on expression in E. coli
1,QTGGSFYEPFNNYNTGLWQKADGYSNGNMFNCTWRANNVSMTSLGEMRLSLTSPSYNKFDCGENRSVQTYGYGLYEVNMKPAKNVGIVSSFFTYTGPTDGTPWDEIDIEFLGKDTTKVQFNYYTNGVGNHEKIVNLGFDAANSYHTYAFDWQPNSIKWYVDGQLKHTATTQIPQTPGKIMMNLWNGAGVDEWLGSYNGVTPLYAHYNWVRYTKR,soluble
2,MGFGFRHILTEREFTRSFAIQRKLKVIAEEIKADVIITHDTGCTTTFEKNQWIGKAHGMYYPVAVMSDVMFSALACGAHPFKVVQLYWNCSNYEPLLEKMGITNWRELKKEWEDTVKYIAELEKQGKYDELLEFFKEYDLYEPYSKTSDGFKLRKSATADLPLFKS,not soluble
3,AIATNDANHLESNCVEEQVQQSLREPWWWLRWRDTPRQQLRGTLFVYTATCPDEKIQRERGFAADHEQVYAFVSFGPEVETDPREHVVEIVKALTSMRSFVETLERTLFEDEDSEPAARTYTHDEPCSVAHHSADADQQFLVETVRHDRIAAAYSSMSQEMHTAPEGARPDCFSKGTSQDHETDTSQPILRKKDETDTWVVALGPDHLVASHTLAACGCALFLGLEWDFRACRSRSDDDFRIMELFQEDLKSRVTWLAPRLGLQHKHACSAQCKDQARNRDSSWDVLLREWLPQAIPGGPRHPQAM,soluble
4,MGSSHHHHHHSSGLVPRGSHMLESSGNRDIAQVVTENNKNYLVLYASQTGTAEDYAKKFSKELVAKFNLNVMCADVENYDFESLNDVPVIVSIFISTYGEGDFPDGAVNFEDFICNAEAGALSNLRYNMFGLGNSTYEFFNGAAKKAEKHLSAAGAIRLGKLGEADDGAGTTDEDYMAWKDSILEVLKDELGVEATGEESSIRQYELVVHTDIDAAKVYMGEMGRLKSYENQKPPFDAKNPFLAAVTTNRKLNQGTERHLMHLELDISDSKIRYESGDHVAVYPANDSALVNQLGKILGADLDVVMSLNNLDEESNKKHPFPCPTSYRTALTYYLDITNPPRTNVLYELAQYASEPSEQELLRKMASSSGEGKELYLSWVVEARRHILAILQDCPSLRPPIDHLCELLPRLQARYYSIASSSKVHPNSVHICAVVVEYETKAGRINKGVATNWLRAKEPAGENGGRALVPMFVRKSQFRLPFKATTPVIMVGPGTGVAPFIGFIQERAWLRQQGKEVGETLLYYGCRRSDEDYLYREELAQFHRDGALTQLNVAFSREQSHKVYVQHLLKQDREHLWKLIEGGAHIYVCGDARNMARDVQNTFYDIVAELGAMEHAQAVDYIKKLMTKGRYSLDVWS,soluble
5,MSLYPEKRDGFSRTGKFEVEGRTVQTPAILEVGEIPEWDFGLAPTSLKFISEELYSRLRPINEEVEILTSLHLLSPRQLVQVFEDLSKEGVSPKPLYAASSALPSNVSLLIYLGADLVDNVLAIAKAYSGIYFLGEVEVEISKLRRLPCNCIHCRNRVVDEVENLLETTAKHNTEMLRMEVEKCRRLILNEELRNYVEGKVKLNPEFTAALRLSDSLRNHSTFPRFRKSRCNFSALESSSRFEVRYFFERALECYKPFSDTVLLLPCTARKPYLTSRTHRALRSKVKVNVNEIIISSPLVVPREFELLYPAVNYDTPVTGHWSEEEVSFVAGWLKRFIEKGGFRKVVAHVTGGYRKVVERVEDEVEAEVVYTAEKDVLSDESIERLKQEIESKGKVDLYRRILEHMLSYQFGITWSGKVAGRYPELELLEGKKRLARVDRIYGMLDIYEKIAAYLLEKNIYTVEIGDFEVKGTIFAGGVLRADEKIRPNDVVVFHNSRIFGVGLAAMSGKEMAGSEKGIAINVKRKFSEGHHHHHH,soluble
6,MEYKPMPYPIIDSHCHLDFPKFNPDREEAIQRARKAGVVGMVNSGISLKGNRISLELAEKNEDIHAALGLSPDIGREGSDKDINAILAQIEANAGKAVAIGEAGLDFQDCKTDEERRRQTASFKKVIELAKNLEKPLVVHARMAEAEVLELARDVDTVIYHCYSGSVETMKEIVDAGYYISLATLVCFSEHHQTLAAEVPPENLLLETDSPFLSPRRGRNEPAFIVDSIPVVAEYKEMEPAEIAKFATENARRVFKILEHHHHHH,not soluble
7,MSLVLQMKSGGVVSDARTELDTQRLAKYIGGKHALVAQGGGQRGIFTAGVLDAFLLSNFDPYHEFYGTSAGALNLCAFLSRQTGLSKAFILELTTRAEFFHLFSYIRRKQYMNMQWALDRIGEYPYRLDLDMARQALGKRKAYAAVTSADDLKDAYFPMLGADWQQVLLATCAIPGLYPEPVTLAGKQYIDGGVSASIPVQEAWRKEARFITVIRTEFMSKEEETPSPSATELPLWLREPLNHLQHQLQHKWSGWRQEWNEFLQQQKLRAKEQKKEQKHLDALNGGRWLFGADDIYRLSHLLGSKFDAGLADLLMVHYQTYTLTSEFLDAHHDDTFIAQIMPSEPLHSNSLLSSPEALQYDYELGLKAGYRFLKAYSEAETFRKEGHHHHHH,soluble
8,MQQASHPTVILGGGFAGLFTALHLSQQNYSYPIILIEQRDRFSFKPLLYELLSGELHSQQVYPRYQELLAGSKVKFVQDTVQSIDIHQQRVDTVSGQAFHYSNLILALGSKTTYFATPGAAEYAMPFTSGEQAIALRQHLRHKLYQAIQTSDSERRRLLLTVAIIGAGPSGIELACTLADLLPIWYDELGGDGSEIHVVLVNRSREILKGDVNSHLRCTVERAMKNRLIPVDFLFDAAVTKITPDGVECRRHGQIQMLQAGTIAWTAGTAPHPLLMELPVSQNRGRLLVKPTLQLSNFPEIFAAGDCATDSDHPQPPTAQVAYQQGIAIAQNLQRISQNKPTIPVQLEHHHHHH,not soluble
9,MGSSHHHHHHSSGLVPRGSGDYDYLIKLLALGDSGVGKTTFLYRYTDNKFNPKFITTVGIDFREKRVVYNAQGPNGSSGKAFKVHLQLWDTAGQERFRSLTTAFFRDAMGFLLMFDLTSQQSFLNVRNWMSQLQANAYCENPDIVLIGNKADLPDQREVNERQARELADKYGIPYFETSAATGQNVEKAVETLLDLIMKRMEQCVEKTQIPDTVNGG,soluble
10,MSLYNDSLFNAFARSFEARSQHDMSMAEYLESCRSDPMKYANAAERLLAAIGEPQTIDTAKDPRLGRIFLNRTIRTYPAFAGFYGMEETIERIVGFFRHAAQGLEERKQILYLLGPVGGGKSSLAERLKSLMEVHPIYVLKAGDELSPVFESPLSLFDPDQLGPMLEEKYGIPRRRLTGLMSPWCYKRLEAFGGDISQFRVAKIQPSRLRQIAIAKTEPGDENNQDISSLVGKVDIRKLETYAQNDPDAYSYSGGLNRANQGILEFVEMFKAPIKMLHPLLTATQEGNYIGTENIGAIPFTGIILAHSNEAEWASFKANKNNEAFIDRICVIKVPYVLRVTEEQKIYEKLIQGSELASAPCAPSTLETMARFSVMSRLRKHENSTVFGKMRVYDGESLKESDPKARSVQEYRDAAGVDEGMDGVSTRFAFKILAATFNHDPQEVAADAVHLMYALEQSIKREQLPEEVEKRYLEFIKADLAPRYAEFIGNEIQKAYLESYSDYGQNLFDRYVDYADAWIEDQDFKDPDTGQLLDRELLNQELTKIEKPAGIANPKDFRNEVVKFSLRSRAQNGGKNPTWTSYEKIRDVIEKRIFSQVEDLLPVISFGSKKDGETEKKHGEFVARMVERGYTERQVRRLVEWYMRVKQAGEGHHHHHH,soluble
11,MGSDKIHHHHHHMSNDKEIIKRAVERHDIDSSIFQGRYVNFTQGKYTDEFIYGRYQMFEEIDRILSSLPKGAKVLDLGCGTGHFSTYIKTLCYEVTGLDPSTKMLDYARQNFPEITFVEGYSNALPFEDNTFDLIISIEVLRYLDTKIVLESYEEIYRTLKPNGKMFITHVNTLATEGYYIFYHLKKLAHSFKGKEYHSAYFTSANKEERTLKKIGFKNISCIGRMFATVRTGYKFGKTIGKTYAKLLEKFNPKQRFEKSHFKNFTGHLIVIAEK,not soluble
12,MSLARQNYHDEVEAAVNKQINVELYASYVYLSMSAHFDRDDIALRNIAKFFKEQSDEERGHATELMRIQAVRGGRVAMQNIQKPEKDEWGTVLEAFEAALALERANNASLLKLHGIAEQRNDAHLTNYIQEKYLEEQVHSINEFARHIANIKRAGPGLGEYLFDKEEFSD,not soluble
13,MKSLTVIILYSEREQILEESIQSIWKLNLLEIIILVPNDRSNLYEIAKKHKCHIVLMGKYSTYYDGYEASVKAAKGDVLLFVDSNFLLSTNEMQRFIEPIVTNQADVVLNKIDKLIEIGKCPNMDIVWRKMLNEILSRPDLKSNSILSLPYALTKEVVENIGFNYMEDIVLSHMKIVNQGWRINDQYAINTLSKDETIEEGGYLIKKELSKNEKEKVERYLRGIAKWIEKKGRRVGFTDAGKRRDIVQKLGECKRYPSYHQGWGMHSSIYDGKQLSVIIPVQNEEETIEQVILEARKIEPLEIIVVVNGSTDQTANIAKRLGVTIIEYNERLGHNVGRAIGALEATGDILLFIDGDFSVSGSNLHHFTKAVSAGVDIALNDLNPMLHPPFYVVDVVKYMLNLAYNRPELSNGSLVAIPHAMSRSCLDAIGWESLLCPSLAQVKAILQGYRVECVHYVDVVKPNRIRLMENVSHNGHPPAVLRIIGDHVEALSYLIEQLEMDGKGDLEHHHHHH,not soluble
14,MVVGDFPIETDTIVIGAGPGGYVAAIRAAQLGQKVTIVEKGNLGGVCLNVGCIPSKALLHASHRFVEAQHSENLGVIAESVSLNFQKVQEFKSSVVNKLTGGVEGLLKGNKVNIVKGEAYFVDNNSLRVMDEKSAQTYNFKNAIIATGSRPIEIPNFKFGKRVIDSTGALNLQEVPGKLVVVGGGYIGSELGTAFANFGSEVTILEGAKDILGGFEKQMTQPVKKGMKEKGVEIVTEAMAKSAEETDNGVKVTYEAKGEEKTIEADYVLVTVGRRPNTDELGLEELGVKFADRGLLEVDKQSRTSISNIYAIGDIVPGLPLAHKASYEAKVAAEAIDGQAAEVDYIGMPAVCFTEPELATVGYSEAQAKEEGLAIKASKFPYAANGRALSLDDTNGFVKLITLKEDDTLIGAQVVGTGASDIISELGLAIEAGMNAEDIALTIHAHPTLGEMTMEAAEKAIGYPIHTM,not soluble
15,MRLLLFRQRNFRNLALEAYRPPPGLSALVGANAQGKTSLLLGIHLALGGEVPLGLADLVRFGEEEAWLHAEVETELGAYRLEHRLGPGGREVLLNGKRVSLRTLWELPGSVLVSPLDLEAVLGPKEERRAYLDRLIARFSRRYAALLSAYEKALRQRNALLKAGGEGLSAWDRELARYGDEIVALRRRFLRRFAPILREVHAALAAKEAGLRLEETAGEGVLRALEASRAEERERGQTLVGPHRDDLVFLLEGRPAHRFASRGEAKTLALALRLAEHRLLGEHHGEPPLLLVDEWGEELDEARRRAVLAYAQALPQAILAGLEAPPGVPVCSVVRGVVLCPGA,soluble
16,MSLPINVPSGLPAVKVLAKEGIFVMTEKRAIHQDIRPLEILILNLMPDKIKTEIQLLRLLGNTPLQVNVTLLYTETHKPKHTPIEHILKFYTTFSAVKDRKFDGFIITGAPVELLPFEEVDYWEELTEIMEWSRHNVYSTMFICWAAQAGLYYFYGIPKYELPQKLSGVYKHRVAKDSVLFRGHDDFFWAPHSRYTEVKKEDIDKVPELEILAESDEAGVYVVANKSERQIFVTGHPEYDRYTLRDEYYRDIGRNLKVPIPANYFPNDDPTKTPILTWWSHAHLFFSNWLNYCIYQKTPYRLEDIHEGHHHHHH,soluble
17,PLQFHSVHGDNIRISRDGTLARRFESFCRAITFSARPVRINERICVKFAEISNNWNGGIRFGFTSNDPVTLEGTLPKYACPDLTNRPGFWAKALHEQYCEKDNILYYYVNGAGDVIYGINNEEKGVILTGIDTRSLLWTVIDIYGNCTGIEFLDSRIYMYQ,soluble
18,VEPVPDTHLRGITCLDHENEKVNMYCVSDDQLICALCKLVGRHRDHQVASLNDRFEKLKQTLEMNLTNLVK,soluble
